Results: US20130209454A1

How the values were obtained:
Assay in all cases: cell-based or functional assay
[1] = biological target: Env of HIV-1 strain 1054_07_TC4_1499 (HIV-1)
[2] = biological target: Env of HIV-1 strain 1056_10_TA11_1826 (HIV-1)
[3] = biological target: Env of HIV-1 strain 211-9 (HIV-1)
[4] = biological target: Env of HIV-1 strain 235-47 (HIV-1)
[5] = biological target: Env of HIV-1 strain 249M B10 (HIV-1)
[6] = biological target: Env of HIV-1 strain 6811.v7.c18 (HIV-1)
[7] = biological target: Env of HIV-1 strain BJOX025000.01.1 (HIV-1)
[8] = biological target: Env of HIV-1 strain BJOX028000.10.3 (HIV-1)
[9] = biological target: Env of HIV-1 strain C2101.c01 (HIV-1)
[10] = biological target: Env of HIV-1 strain C3347.c11 (HIV-1)
[11] = biological target: Env of HIV-1 strain CNE20 (HIV-1)
[12] = biological target: Env of HIV-1 strain CNE53 (HIV-1)
[13] = biological target: Env of HIV-1 strain Ce1086_B2 (HIV-1)
[14] = biological target: Env of HIV-1 strain Ce2060_G9 (HIV-1)
[15] = biological target: Env of HIV-1 strain Ce703010054_2A2 (HIV-1)
[16] = biological target: Env of HIV-1 strain Du422.1 (HIV-1)
[17] = biological target: Env of HIV-1 strain HIV-0013095-2.11 (HIV-1)
[18] = biological target: Env of HIV-1 strain MS208.A1 (HIV-1)
[19] = biological target: Env of HIV-1 strain P1981_C5_3 (HIV-1)
[20] = biological target: Env of HIV-1 strain Q259.d2.17 (HIV-1)
[21] = biological target: Env of HIV-1 strain QH0692.42 (HIV-1)
[22] = biological target: Env of HIV-1 strain RHPA4259.7 (HIV-1)
[23] = biological target: Env of HIV-1 strain WITO4160.33 (HIV-1)
[24] = biological target: Env of HIV-1 strain X1632_S2_B10 (HIV-1)
[25] = biological target: HIV-1 Env of strain 1054_07_TC4_1499 (HIV-1)
[26] = biological target: HIV-1 Env of strain 191955_A11 (HIV-1)
[27] = biological target: HIV-1 Env of strain 246F C1G (HIV-1)
[28] = biological target: HIV-1 Env of strain 3103.v3.c10 (HIV-1)
[29] = biological target: HIV-1 Env of strain 3365.v2.c2 (HIV-1)
[30] = biological target: HIV-1 Env of strain 6480.v4.c25 (HIV-1)
[31] = biological target: HIV-1 Env of strain 6952.v1.c20 (HIV-1)
[32] = biological target: HIV-1 Env of strain 9004SS_A3_4 (HIV-1)
[33] = biological target: HIV-1 Env of strain BJOX010000.06.2 (HIV-1)
[34] = biological target: HIV-1 Env of strain C1080.c03 (HIV-1)
[35] = biological target: HIV-1 Env of strain CNE19 (HIV-1)
[36] = biological target: HIV-1 Env of strain Ce0682_E4 (HIV-1)
[37] = biological target: HIV-1 Env of strain Ce1086_B2 (HIV-1)
[38] = biological target: HIV-1 Env of strain Ce2010_F5 (HIV-1)
[39] = biological target: HIV-1 Env of strain Ce703010054_2A2 (HIV-1)
[40] = biological target: HIV-1 Env of strain Du156.12 (HIV-1)
[41] = biological target: HIV-1 Env of strain HIV-16845-2.22 (HIV-1)
[42] = biological target: HIV-1 Env of strain PVO.4 (HIV-1)
[43] = biological target: HIV-1 Env of strain Q259.d2.17 (HIV-1)
[44] = biological target: HIV-1 Env of strain Q842.d12 (HIV-1)
[45] = biological target: HIV-1 Env of strain R2184.c04 (HIV-1)
[46] = biological target: HIV-1 Env of strain T250-4 (HIV-1)
[47] = biological target: HIV-1 Env of strain T251-18 (HIV-1)
[48] = biological target: HIV-1 Env of strain T278-50 (HIV-1)
[49] = biological target: HIV-1 Env of strain X1632_S2_B10 (HIV-1)
[50] = biological target: HIV-1 Env of strain ZM109F.PB4 (HIV-1)
[51] = biological target: HIV-1 Env of strain ZM53M.PB12 (HIV-1)

Chain of NIH45-46 (antibody) (VH): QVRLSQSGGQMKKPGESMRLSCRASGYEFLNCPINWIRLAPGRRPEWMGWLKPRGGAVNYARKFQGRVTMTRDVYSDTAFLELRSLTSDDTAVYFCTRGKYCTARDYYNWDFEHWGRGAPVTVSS
Chain of NIH45-46 (antibody) (V domain): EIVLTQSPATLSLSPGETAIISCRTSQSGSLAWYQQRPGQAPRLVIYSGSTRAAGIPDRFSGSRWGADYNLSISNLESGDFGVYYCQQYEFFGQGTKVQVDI

Substance: NIH45-46 (antibody)
- IC80 [1]: 0.404 µg/mL
- IC80 [2]: 0.447 µg/mL
- IC80 [3]: > 50 µg/mL
- IC80 [4]: 1.49 µg/mL
- IC80 [5]: 0.17 µg/mL
- IC80 [6]: 0.113 µg/mL
- IC80 [7]: 10 µg/mL
- IC80 [8]: > 50 µg/mL
- IC80 [9]: 31.4 µg/mL
- IC80 [10]: 0.094 µg/mL
- IC80 [11]: > 50 µg/mL
- IC80 [12]: 0.039 µg/mL
- IC80 [13]: 0.28 µg/mL
- IC80 [14]: 0.29 µg/mL
- IC80 [15]: 0.538 µg/mL
- IC80 [16]: > 50 µg/mL
- IC80 [17]: 0.03 µg/mL
- IC80 [18]: 0.6 µg/mL
- IC80 [19]: 0.24 µg/mL
- IC80 [20]: 0.154 µg/mL
- IC80 [21]: 1.71 µg/mL
- IC80 [22]: 0.047 µg/mL
- IC80 [23]: 0.26 µg/mL
- IC80 [24]: > 50 µg/mL
- IC50, pseudovirus neutralization [25]: 0.113 µg/mL
- IC50, pseudovirus neutralization [26]: 0.11 µg/mL
- IC50, pseudovirus neutralization [27]: > 50 µg/mL
- IC50, pseudovirus neutralization [28]: 1.77 µg/mL
- IC50, pseudovirus neutralization [29]: 0.029 µg/mL
- IC50, pseudovirus neutralization [30]: 0.032 µg/mL
- IC50, pseudovirus neutralization [31]: 0.02 µg/mL
- IC50, pseudovirus neutralization [32]: 0.18 µg/mL
- IC50, pseudovirus neutralization [33]: 0.87 µg/mL
- IC50, pseudovirus neutralization [34]: 2.48 µg/mL
- IC50, pseudovirus neutralization [35]: 0.07 µg/mL
- IC50, pseudovirus neutralization [36]: 0.054 µg/mL
- IC50, pseudovirus neutralization [37]: 0.04 µg/mL
- IC50, pseudovirus neutralization [38]: 0.101 µg/mL
- IC50, pseudovirus neutralization [39]: 0.159 µg/mL
- IC50, pseudovirus neutralization [40]: 0.02 µg/mL
- IC50, pseudovirus neutralization [41]: 5 µg/mL
- IC50, pseudovirus neutralization [42]: 0.12 µg/mL
- IC50, pseudovirus neutralization [43]: 0.043 µg/mL
- IC50, pseudovirus neutralization [44]: 0.031 µg/mL
- IC50, pseudovirus neutralization [45]: 0.034 µg/mL
- IC50, pseudovirus neutralization [46]: > 50 µg/mL
- IC50, pseudovirus neutralization [47]: 1.35 µg/mL
- IC50, pseudovirus neutralization [48]: > 50 µg/mL
- IC50, pseudovirus neutralization [49]: 0.07 µg/mL
- IC50, pseudovirus neutralization [50]: 0.095 µg/mL
- IC50, pseudovirus neutralization [51]: 0.175 µg/mL
